Results reported in PMC5379210 (Scientific Reports, 2017).
Changes are numbered by the printed parent chain. Numbers in names are those of the source.

B1: S. cerevisiae Gpi8 (23-306aa), caspase-like domain, insect cell expressed (N-glycosylated) (domain or fragment, UniProt P49018 23-306, looked up)
chain: NNTDAAHEVIATNTNNWAVLVSTSRFWFNYRHMANVLSMYRTVKRLGIPDSQIILMLSDDVACNSRNLFPGSVFNNKDHAIDLYGDSVEVDYRGYEVTVENFIRLLTDRWTEDHPKSKRLLTDENSNIFIYMTGHGGDDFLKFQDAEEIASEDIADAFQQMYEKKRYNEIFFMIDTCQANTMYSKFYSPNILAVGSSEMDESSYSHHSDVEIGVAVIDRFTYYCLDFLEQIDKNSTLTLQDLFDSFTFEKIHSHVGVRTDLFDRNPSEVLITDFFANVQNVIPD
modifications: N-glycosylated (two predicted N-glycosylation sites in 23-306)
notes: The construct has an N-terminal gp67 signal peptide for secretion (pFastBac-dual); Runs as a disulfide-linked dimer; also called insect cell expressed Gpi8; not shown: 6xHis, C-terminal, kept
B2: S. cerevisiae Gpi8 (23-306aa), insect cell expressed in the presence of tunicamycin (nonglycosylated) (domain or fragment, UniProt P49018 23-306, looked up)
chain: B1 chain
notes: N-terminal gp67 signal peptide in the construct; also called nonglycosylated Gpi8; insect cell expressed Gpi8 in the presence of tunicamycin
B3: S. cerevisiae Gpi8 (23-306aa) C246A (domain or fragment, UniProt P49018 23-306, looked up)
chain: B1 chain with C224A
notes: the methods print Cys244Ala
B4: S. cerevisiae Gpi8 (23-306aa), E. coli SHuffle expressed (domain or fragment, UniProt P49018 23-306, looked up)
chain: B1 chain
notes: Same construct as m12, other E. coli strain (constitutively expresses DsbC); also called E. coli Shuffle-expressed Gpi8
B5: S. cerevisiae Gpi8 (23-306aa), E. coli BL21 expressed (domain or fragment, UniProt P49018 23-306, looked up)
chain: B1 chain
notes: Cloned into NdeI-XhoI sites of pET26a (so in the source); also called E. coli expressed Gpi8
B6: S. cerevisiae Gpi8 (23-306aa) C199A (domain or fragment, UniProt P49018 23-306, looked up)
chain: B1 chain with C177A
B7: S. cerevisiae Gpi8 (23-379aa) C373A (domain or fragment, UniProt P49018 23-379, looked up)
chain: NNTDAAHEVIATNTNNWAVLVSTSRFWFNYRHMANVLSMYRTVKRLGIPDSQIILMLSDDVACNSRNLFPGSVFNNKDHAIDLYGDSVEVDYRGYEVTVENFIRLLTDRWTEDHPKSKRLLTDENSNIFIYMTGHGGDDFLKFQDAEEIASEDIADAFQQMYEKKRYNEIFFMIDTCQANTMYSKFYSPNILAVGSSEMDESSYSHHSDVEIGVAVIDRFTYYCLDFLEQIDKNSTLTLQDLFDSFTFEKIHSHVGVRTDLFDRNPSEVLITDFFANVQNVIPDDSKPLSVSHYHHYKDHIDTAQYELNNNVLDLALETYRKNNQSSKIEKKIKDIKSTSVLDVDIDSNEAFFTSFK
notes: S. cerevisiae Gpi8, full-length luminal construct, residues 23-379, with C373A; also called C373A mutant
B8: S. cerevisiae Gpi8 (23-359aa) (domain or fragment, UniProt P49018 23-359, looked up)
chain: NNTDAAHEVIATNTNNWAVLVSTSRFWFNYRHMANVLSMYRTVKRLGIPDSQIILMLSDDVACNSRNLFPGSVFNNKDHAIDLYGDSVEVDYRGYEVTVENFIRLLTDRWTEDHPKSKRLLTDENSNIFIYMTGHGGDDFLKFQDAEEIASEDIADAFQQMYEKKRYNEIFFMIDTCQANTMYSKFYSPNILAVGSSEMDESSYSHHSDVEIGVAVIDRFTYYCLDFLEQIDKNSTLTLQDLFDSFTFEKIHSHVGVRTDLFDRNPSEVLITDFFANVQNVIPDDSKPLSVSHYHHYKDHIDTAQYELNNNVLDLALETYRKNNQSSKIEKKIKDIK
notes: S. cerevisiae Gpi8, C-terminal truncation of the luminal domain, residues 23-359; also called S. cerevisiae Gpi8 (23-359aa)^BL21

What was measured:
[1] = molecular target: S. cerevisiae Gpi8 (23-337aa) (S. cerevisiae) (UniProt P49018); test: SEC; single purified protein on Superdex 200 10/300 GL, 20 mM Tris-HCl pH 8, 150 mM NaCl, purified without reducing agent (non-reducing) or with 2.5 mM DTT; re-runs of peaks; dimer to monomers
[2] = molecular target: S. cerevisiae Gpi8 (23-306aa) C85A (S. cerevisiae) (UniProt P49018); test: SEC-MALS; C85A mutant under reducing conditions
[3] = molecular target: S. cerevisiae Gpi8 (23-306aa) C85A (S. cerevisiae) (UniProt P49018); test: SEC; single purified protein on Superdex 200 10/300 GL, 20 mM Tris-HCl pH 8, 150 mM NaCl, purified without reducing agent (non-reducing) or with 2.5 mM DTT; re-runs of peaks; dimer to monomers
[4] = molecular target: the molecule itself; test: as above

Molecule	stoichiometry N [4]	other results
S. cerevisiae Gpi8 (23-337aa) (from UniProt P49018 23-337) (domain or fragment)	–	stoichiometry N [1]: 2
S. cerevisiae Gpi8 (23-306aa) C85A (from UniProt P49018 23-306) (domain or fragment)	–	stoichiometry N [2]: 2; stoichiometry N [3]: 2
B1	2	–
B2	2	–
B3	2	–
B4	2	–
B5	2	–
B6	2	–
B7	2	–
B8	2	–
